Measured values taken from the DeepSol protein solubility set.

Test: soluble on expression in E. coli; label from the status in PepcDB or PDB records
With “MEVIREQEFVNQYHYDARNLEWEEENGTPKTNFEVTFQLANRDEAAKVTSIVAVLQFVIVRDEFVISGVISQMAHIQGRLINEPSEFSQDEVENLAAPLLEIVKRLTYEVTEIALDRPGVTLEFNS” the “soluble on expression in E. coli” value was “soluble”. For “MEVNKKQLADIFGASIRTIQNWQEQGMPVLRGGGKGNEVLYDSAAVIKWYAERDAEIENEKLRREVEE”, the “soluble on expression in E. coli” value was “soluble”. With “MEVTDVRLRRVNTDGRMRAIASITLDHEFVVHDIRVIDGNNGLFVAMPSKRTPDGEFRDITHPINSSTRGKIQDAVLNEYHRLGDTEALEFEEAGAS” the “soluble on expression in E. coli” value was “soluble”. For “MEWYMGKYIRPLSDAVFTIASDDLWIESLAIQQLHTTANLPNMQRVVGMPDLHPGRGYPIGAAFFSVGRFYPARRRGNGAGNRNGPLL”, the “soluble on expression in E. coli” value was “not soluble”. For “MEYGVLSWWDYGNWIVYVGKRPAVSNNFQTGVEDSANFLLTDSEEEAKTIVEKLKVKYVMTDTLMAEGKFSSITSLAGKEIGEYYEVETVKGDTGLRTVATPKQALLQTQVYKLHKLDGTSLGHFRLVHESAVNSTDDGNSKENTVKVFEYVKGATLEHHHHHH”, the “soluble on expression in E. coli” value was “soluble”. With “MEYIYASLLLHSAKKEISEDALKNVLTAAGISVDEVRLKAVVAALKEVNIDEVLKNAAAMPVAVAAQPQATQAQPAAEEKKEEKKEEEKKGPSEEEIASGLASLFGLEHHHHHH” the “soluble on expression in E. coli” value was “not soluble”. With “MEYKSTRHAKYLCNYHFVWIPKYRRKVLTGEVAEYTKEVLRTIAEELGCEVLALEVMPDHIHLFVNCPPRYAPSYLANYFKGKSARLILKKFQELKKSTNGKLWTRSYFVSTSGNVSSETIKKYIEEQWAKENEED” the “soluble on expression in E. coli” value was “soluble”. For “MEYMVLIYRDEAFAPEYGSPEWEQMMGGFLAFNQRLIDGGHWIAGGGLQTTPSATTVRLAAGTVPKVLDGPYAETKEQLGGFYLVRADTLDEVLDLARSLPIEGAIEVRPLTYRPTGE”, the “soluble on expression in E. coli” value was “not soluble”. In the case of “MEYNLDLARAFLQKHRIAVVEPNPPYLQFSEAQLAQQKAKLAKNLQISTACKWLFVHASTGGSATSLSIEQYAQMLNGIASETNCEIVLTAGKGESEKAYQLAAQITATKAVVYDKNDGLQDFARSIACADLFIAGSTGPLHIAGALNVATIGFYPSRLSALPRRWRPINEEGKHLEHHHHHH”, the “soluble on expression in E. coli” value is reported as “not soluble”. In the case of “MFAERLKELRKREAGLTQERLAMQLGMAKTTLASYEQGKRQPDLETLSKIADRFSVTTDYLLGKNGTPKWATKKDTIDLKDFLEANEGSMTYGGEDLTEEEKQQVRVAMATIFWKRHKHD”, the “soluble on expression in E. coli” value is reported as “not soluble”. In the case of “MFDPKKLEQIAKQIHDSMPAPVKELGADVDQKVRQVIQGQLNKLDVVSREEFDVQTQVLLRTRQKLTEMEKKLSELEEKLADK”, the “soluble on expression in E. coli” value is reported as “not soluble”. In the case of “MFEPGHLHLVSLPGLDQQDINIHIRYEVRQNAESGAYVHFDMDGEIDGKPFSDSFELPRDTAFNFASDATRVAQKHGLHPKFGAITRVHKEYDAMFEDIRAKLHAHPGEPVDLERIIRHE”, the “soluble on expression in E. coli” value is reported as “not soluble”. In the case of “MFETCEAIVMRTVDYGETNKIVTLFTREWGKVAAMARGAKKPSSRLSAVTQPLSYGHYVIRRSRGVGVLHQGELIDSMRALREDLFAAAYAVYIVELTDKSTEEQKRNPYLFELLLQTLQYMSEGRDLEILTFIYEMKMLAVLGIPPVLDRCARCGATEGRFSFSVKEAGFLCHRCEASDPHRFPLSSASVRLLRLFFHIDLARLGSISVKESTKMELGSVLSAYYDEYAGLSLKTKRFLQQIGELKDKLSPDGGQGASFSL”, the “soluble on expression in E. coli” value is reported as “not soluble”. With “MFFSEARARSRTWEASPSEHRKWVEVFKACDEDHKGYLSREDFKTAVVMLFGYKPSKIEVDSVMSSINPNTSGILLEGFLNIVRKKKEAQRYRNEVRHIFTAFDTYYRGFLTLEDFKKAFRQVAPKLPERTVLEVFREVDRDSDGHVSFRDFEYALNYGQKEA” the “soluble on expression in E. coli” value was “not soluble”. In the case of “MFFSFKIDGDELDKRMGGGVYVGQLFTIFGDNSEGKTLLSLRLAYGFLKNGISITYVSSQMPVREFISFSDALGYPVLNSVISGSMLYITPVFMLRRTRRANLDELINNDRIKEKSVLIIDSLNPGMFRDFEINSYMEKLRKFSENRVVIITANQASLDDATVLRINQLSTTIVTLHSKELGGVKRHFIDLVKYPMVVRSIQQSIPFRVEPGRGLIVEISSVS”, the “soluble on expression in E. coli” value is reported as “not soluble”. With “MFGNYISTSPEKIIMLALRIMQGIAKTLAEHVLDLKHSPLSKQAMKRQTLRLWAEYSLGTINKIIDMKSGPSNQSAEEMEFIRRLILIRRDIHSQLHSVGIDINDGTGD” the “soluble on expression in E. coli” value was “not soluble”. In the case of “MFGSSGFGNKSMFGGSNISTSTTTPAANTTQNDDFLVDGAPEDTIQVIKFSPTPQDKPMLACGSWDGTIRVWMFNDANTFEGKAQQNIPAPILDIAWIEDSSKIFIACADKEARLWDLASNQVAVVGTHDGPVKTCHWINGNNYQCLMTGSFDKTLRFWDMKNLPNQTQMAQIQLPERVYAADVLYPMAVVALANKHIKVYNLENGPTEVKDIESQLKFQIRCISIFKDKSNQNPAGFALGSIEGRVAVQYVDVANPKDNFTFKCHRSAELVNGFQEIYAVNDICFHPQHGTLVTIGSDGRYSMWDKDARTKLKTSEPHPMPLTCCDVHSSGAFLVYALGYDWSRGHEGNTQPGSKIVIHKCIEDMKPRPTKK”, the “soluble on expression in E. coli” value is reported as “not soluble”. In the case of “MFGTNGNAGIAVTDPTKQAEIYRALESLKKDESGWKKSVDSFIGPHKPSPEEQFLLLQVIEDYLNKRYHSSSQGDVSVIRTFLLHYTKNSRSSTVDQPAFLTNKMAHIFSLVFAADFPERWSSFFNDLFFSDNINDRKVAFFYLKVLLAIDTEVVNRDIQRSKNESDRNIKIKDAMREICINEIAKSWLTIANALPEDNVIQCLVLDNIASYVDWIELDLVANDYVMPLIISKFQNPATSESATAAVCSLLEKGMPAEKKVGLTLTIMTVLRSNGLLTVNDNNDEEEVTRVGSLVNTLGLVLLDVQNKLCASSILEKEQECCVQEMAGLAEPALVVLNNEDPDLSCMCIDYIRAYCSFLLKFHPNETNFIEKVIRAGLQRYVMNDDMTVGGDGEDEVEFQEFRRELRSMLNVIGLKRPEAIINAVEPWTAEVTSGGSSIPVNRIEALLNVIFHLHEIIPSNMLQSPREGISQRAARLPIVILEGLVLDGRCPAIHVLYFELACRYERLLVLQPQPVVIPHIAAAFLDQRGISISSANVRTRIVYLFCRFVKSHKTVLGPLVSEVITRLAPLLAVSPQADTNQLLSPEDQGYIFEATATLIVFGDLTSEMKSQYVGELASTLAMKFENGLVELNTARARKADEETIQAILQFMSNIIGYSSRMSKAFNNAQSMKACNCIDIYLRLIKLYLETLSPQNAFLLESTRQFAHRLVVSMENELMPYMNGIFDKLALVSTDLDSMHHLLIFCHQTVAKYKKAMLTSGVDLGNVLAIAARASLQEQENNIPAKDDSQRALLYVQRAFVQLLYTVIASDCTPALNTTPGLLDHVLESAARLALSSDQTAQKVALSCLAKISLITPSWSARTLRVALEIPSLSHITPSDAGSTLVVHEVCATLTSLHQSDPDGFTRALRELVPNGFSDQLLSALTNLKGKNLDKQVMNLYSSLRNQSAQ”, the “soluble on expression in E. coli” value is reported as “not soluble”. In the case of “MFHLKTFSDMVESIQITSFHNAELLNFMIDEVKDARTLSKNEIIPTLDELDKVLATFKKGIAMNKTSEYSEKITALDAVRSKAFRNFIGCIQGETHRPEEDHREAARRLFILLKPYNNLNRKSYRNKTELMYKLVEVLRSDKHASDVQTVNVSAWIDKMDNANKAFDQLFDLRDNTEGERLIINNREMRHRIRLHYNRLLEIIEALLVLHADRPLEGFVGRHNERVAKMKALFALRASIGTKSTREKRDVLRSLAIGLGWSLPAGQEDFEFFAGTRILHPTEHRWYCLGKKDNIITLVLYKGKKKQSSSSSSNSSVDLPDLPAPPPSQPDNGSSGGGGEQGGGGSGGL”, the “soluble on expression in E. coli” value is reported as “not soluble”. For “MFIPKSHTKLIYEYLFNEGVTVAKKDFNAKTHPNIEGVSNLEVIKTLKSLASRELVKEQFAWRHYYWYLTDAGILYLREYLALPAEIVPATIKTKPREIRVPHEDRAPRAAQGEKGDREAYRTEKVTEAGPGGAPVYRAGFGRGAPPPQ”, the “soluble on expression in E. coli” value was “not soluble”. For “MFIPQIVPIRDLKNTSAISNLCHKTNEPIFITKNGYGDMVIMSMETYEGNAFFNNLYGNLEEAEMDLQNGRVSGIDEAIEEIKSRYDLEHHHHHH”, the “soluble on expression in E. coli” value was “not soluble”. In the case of “MFKKLKASLGIGSAKVDTILDEMSVFQGATLKGHVHIKGGDVEQQIDAITIKLNTEMKVEVDDSVSYQTFTIDQLKAVDPFVIQPNEEKQVPFELKLHDETPITAVSALKNQCNVWVETTLDIDFAIDPRDRDYIEVKPLPVASRVIRAIEQAGFTMVKADVEKGFLRGGSFASRSGIYQELEFRNSGFVSSKEIELSFILEGQVMHCLAEIDRSLSFSGDQYRSFTLPINATDAQVAAAVAPTLSL”, the “soluble on expression in E. coli” value is reported as “not soluble”. For “MFKRLFMVALLAIAPLVHAVDQSNPYRLMDEAAKKTFTRLKNEQPKIKQNPDYLRTIVREELLPFVQIKYAGALVLGSYYKDATPAQREAYFNAFGKYLEQAYGQALALYHGQTYDVAPDQPLGDANIVAIRVTILDPSGRPPVRLDFQWRKNSQTGNWQAYDMIAEGVSMISTKQNEWASILRQKGVDGLTQQLLSAAKQPITLDK”, the “soluble on expression in E. coli” value was “not soluble”. In the case of “MFLKSLIFVLTFQFSNGNPVEQVHLSLSGKADEMVVTWLTHDPRKFTC”, the “soluble on expression in E. coli” value is reported as “not soluble”. With “MFLPVLDSLPSDYDLLRKTYSRMKLEWSTHDLISHCVQEEERLTNEKKEHDLVAGKVICDKKRKQYDECLEAVLGN” the “soluble on expression in E. coli” value was “soluble”. In the case of “MFLQSNEHVGTYYAAVNPELIQPRQALEGDLDCEVLVVGAGFSGLHTALRLVEGGRQVCVIEASRIAWAASGRNGGQALPGWSSDLPPLEADLGYEGARRLWDGMLWAAGEMRELPQRHGFDCDYRVGHLWTAILPRRVGLLYDWQAEANRRWGYEGLRFVAKDELPEWIASERYLAGLYDPHAAHLNPLKLAFGLAAAIERAGGRIHERTRALNYREEGDGYRVRTEHGEIRCAALVLACNAYIDGLDSELSQRMLPVGTYQVATEPLGEERAKSLLPRNCCVTDNQFVLDYFRLTPDHRLLFGGGCTYLGGMPSDIRAATRPYLERVFPQLRGVALEYAWGGHIDCSMRRTPDIGRQGNRYWLQGYSGHGVLPSLAAARAVSDALLGDDETLALYQRLRNPKFPGGQRFAAPLEALGKAYYRLRDLFLEHHHHHH”, the “soluble on expression in E. coli” value is reported as “not soluble”. In the case of “MFNFANFYQLIAQDTRLQPWLNVLPQQLTDWQNAEHGDFGRWLKALNKIPEGSPDQVDIKNSVTISNDTPFHEGELKKLENLLRTFHPWRKGPYTVHGIHIDTEWRSDWKWDRVLPHISPLKNRSVLDVGCGNGYHMWRMLGEGARLCVGIDPSHLFLIQFEAIRKLMGGDQRAHLLPLGIEQLPKLEAFDTVFSMGVLYHRRSPLDHLIQLKDQLVSGGELVLETLVIEGDENAVLVPTSRYAQMRNVYFFPSAKALKVWLELVGFEDVHIVDENVTSVDEQRTTDWMTHNSLPDYLDPNDPSKTVEGYPAPRRAVLVARKP”, the “soluble on expression in E. coli” value is reported as “not soluble”. For “MFNKVIMVGRLTRNVELKYLPSGSAAATIGLATSRRFKKQDGTLGEEVCFIDARLFGRTAEIANQYLSKGSSVLIEGRLTYESWMDQTGKKNSRHTITADSLQFMDKKSDNPQANAMQDSIMHENSNNAYPANH”, the “soluble on expression in E. coli” value was “soluble”. In the case of “MFPCLCTLKILTFQPKFQKIHDEMKALKAAGKQDEFAKKFVTKDAIFMGPLHEPANVTEAAKFAKSEMMAAVSKGEFNITIDEITPIGDVVIERCTIHAKVASGDKTGWSLCVWVKDGGAWKIRNSCTTFKVVPSA”, the “soluble on expression in E. coli” value is reported as “not soluble”. With “MFPIKKRKAIKNNNINAAQIPKHIAIIMDGNGRWAKQKKMPRIKGHYEGMQTVRKITRYASDLGVKYLTLYAFSTENWSRPKDEVNYLMKLPGDFLNTFLPELIEKNVKVETIGFIDDLPDHTKKAVLEAKEKTKHNTGLTLVFALNYGGRKEIISAVQLIAERYKSGEISLDEISETHFNEYLFTANMPDPELLIRTSGEERLSNFLIWQCSYSEFVFIDEFWPDFNEESLAQCISIYQNRHRRFGGL” the “soluble on expression in E. coli” value was “soluble”.
